This test has as its target Nedd4 (UniProt P46935). As to the kind of experiment: anti-FLAG co-IP, Ala mutants. The following applies: reference: wild type; sites T1859,S1962.

The source of these data is PMC3387196.

Turning to “Kif26b (from UniProt Q7TNC6) T1859A/S1962A”, the “binding against the reference” value is listed as “weaker”.
